The values below come from paper PMC2914671, “A VLP-based vaccine targeting domain III of the West Nile virus E protein protects from lethal infection in mice” (Virology Journal, 2010).

The data set deals with the molecule itself. Kind of data set: transmission electron microscopy; purified AP205 VLPs adsorbed onto carbon-Formvar-coated grids, stained with 2% phosphotungstic acid.

B1: AP205 virus-like particles (recombinantly expressed coat protein of bacteriophage AP205) (natural protein)
chain: MANKPMQPITSTANKIVWSDPTRLSTTFSASLLRQRVKVGIAELNNVSGQYVSVYKRPAPKPEGCADACVIMPNENQSIRTVISGSAENLATLKAEWETHKRNVDTLFASGNAGLGFLDPTAAIVSSDTTA
notes: coat protein of the Acinetobacter bacteriophage AP205; monomer 14.0 kDa; The VLPs hold about 25-30 ug of host cell RNA per 100 ug of coat protein; also called AP205 VLPs; AP205 VLP carrier; source: E. coli, purified from cleared lysates (Fractogel TMAE anion exchange, hydroxyapatite); copies: 180
For the protein B1, the binding result is “binds”.
